Test results taken from paper PMC4040697 (Cell Death & Disease, 2014).

B1: His-tagged C-terminal domain of TRAF2 (residues 310–501) (domain or fragment, human, UniProt Q12933 310-501, looked up)
chain: DQDKIEALSSKVQQLERSIGLKDLAMADLEQKVLEMEASTYDGVFIWKISDFARKRQEAVAGRIPAIFSPAFYTSRYGYKMCLRIYLNGDGTGRGTHLSLFFVVMKGPNDALLRWPFNQKVTLMLLDQNNREHVIDAFRPDVTSSSFQRPVNDMNIASGCPLFCPVSKMEAKNSYVRDDAIFIKAIVDLTGL
B2: Dansylated TRAF2 (C-terminal domain, residues 310–501) (domain or fragment, human, UniProt Q12933 310-501, looked up)
chain: B1 chain
modifications: dansyl, mole ratio of dansyl/TRAF2 2 : 1; labelled residues not stated

How the values were obtained:
[1] = target: T1, glutathione transferase P1-1 (GSTP1-1), native (UniProt P09211 1-210); assay: ELISA
[2] = target: T1, glutathione transferase P1-1 (GSTP1-1), …; assay: ELISA; remark: listed apart in the source
[3] = target: T1, glutathione transferase P1-1 (GSTP1-1), …; assay: ELISA; remark: listed apart in the source
[4] = target: T1, glutathione transferase P1-1 (GSTP1-1), …; assay: ELISA; remark: listed apart in the source
[5] = target: T1, glutathione transferase P1-1 (GSTP1-1), …; assay: ELISA; remark: listed apart in the source
[6] = target: T1, glutathione transferase P1-1 (GSTP1-1), …; assay: ELISA; remark: listed apart in the source
[7] = target: T1, glutathione transferase P1-1 (GSTP1-1), …; assay: ELISA; remark: listed apart in the source
[8] = target: 'Oxidized' GSTP1-1 (oxidatively inactivated) (UniProt P09211 1-210, one intra-chain disulfide bond between cysteine 47 and 101); assay: ELISA
[9] = target: T1, glutathione transferase P1-1 (GSTP1-1), …; assay: other fluorescence titration
[10] = target: T1, glutathione transferase P1-1 (GSTP1-1), …; assay: other fluorescence titration; remark: listed apart in the source

T1 sequence (P09211 whole entry): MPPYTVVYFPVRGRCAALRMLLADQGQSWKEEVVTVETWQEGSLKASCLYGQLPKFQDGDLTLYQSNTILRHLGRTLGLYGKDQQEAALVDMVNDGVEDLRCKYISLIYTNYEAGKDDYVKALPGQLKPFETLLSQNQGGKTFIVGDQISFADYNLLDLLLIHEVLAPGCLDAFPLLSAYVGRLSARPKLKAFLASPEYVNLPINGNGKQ
Chain of 'Oxidized' GSTP1-1 (oxidatively inactivated) (P09211 whole entry): as above

Binder | Kd [1] [nM] | Kd [2] [nM] | Kd [3] [nM] | Kd [4] [nM] | Kd [5] [nM] | Kd [6] [nM] | Kd [7] [nM] | Kd [8] [nM] | Kd [9] [nM] | Kd [10] [nM]
B1 | 930 | 490 | ≥ 5000 | 2700 | 1200 | 2600 | 290 | 1700 |  | 
B2 |  |  |  |  |  |  |  |  | 4600 | 300
